One assay concerns Foxp3. The assay is described as follows: Foxp3 expression within CD4+ T cell population by FACS. It counts as cell-based, NOD AB° DQ8 transgenic mice. The following applies: spleen. The protocol:
Flow cytometric analysis: spleens and cervical lymph node tissue of SLIT treated mice were isolated, prepared as described above and stained for CD4, CD25 and Foxp3. Intracellular staining was performed for Foxp3 according to the manufacturer's instructions (eBiosciences) and subsequently measured using flow cytometry on a Becton Dickinson FACSCaliburs. Cells were gated on CD4^+CD25^+ and CD4^+CD25^− subpopulations and within these populations Foxp3 histograms were used to determine Mean Fluorescence Intensity (MFI).
T-cell phenotyping: CD4 and CD25 antibodies were purchased from BD Biosciences, and APC anti-Foxp3 staining kits were purchased from eBiosciences. Anti-IL-10 neutralizing monoclonal antibody (1 μg/mL, clone JES052A5), TGF-β neutralizing monoclonal antibody (1 μg/mL, clone 1D11) and LAP (latency associated peptide) neutralizing antibodies (1 μg/mL, clone 27235) were obtained from R&D systems.

Assay [1] concerns NOD AB° DQ8 transgenic mice. The assay is described as follows: Antigen-specific DTH response (ear swelling) after SLIT. The assay is classed as in vivo. The note with it: 10 μg DQ8d in ear, 24 hours, compared to PBS.
Assay [2] has as its system OVA- or Ovm-sensitized piglets. The assay is described as follows: Piglet food allergy model, oromucosal PSF patch treatment. The assay is classed as in vivo, Landrace-Yorkshire piglets. The note with it: oromucosal once weekly for 6 weeks.
For assay [3], the system named is OVA- or HDM-sensitized mice. The assay is described as follows: Sublingual immunotherapy (SLIT) mouse model. The assay is classed as in vivo, BALB/cByJ mice. The following applies: sublingual 5 days a week for 8 weeks. The procedure: Antigen: naturally purified Der p1 and 2 in a 50:1 ratio was purchased from Citeq or intact, LPS-free OVA grade V protein (Sigma Aldrich) was used as antigen in all experiments. Animals: BALB/cByJ mice were purchased from Charles River Laboratories at an age of 6 to 8 weeks and housed in individually ventilated cages (IVC). Sensitization of mice: all mice received intraperinoneal injections on day 1 and 15 of 5 μg crude extract […]) or 25 μg OVA adsorbed to 2.25 mg Alum (Imject, Pierce) in 100 μL PBS. […] Hereafter, airway responsiveness was determined, and bronchoalveolar lavage fluid (BALF), lungs, and blood were collected and stored for analyses. Measurement of airway hyperreactivity to methacholine: airway hyperresponsiveness (AHR) was assessed by measuring airway resistance (R in cmH2O.s/mL) and lung compliance (C in mL/H2O) in response to intravenous administration of increasing doses of methacholine (Sigma-Aldrich). The AHR was expressed as the effective dose of methacholine required to induce a R of 3 cmH2O.s/mL (ED3). […] ELISA determined the concentrations of IL-5, IL-10, IL-13 and IFN-γ, according to the manufacturer's instructions (BD Pharmingen). […]

Ends that are not written are not given here.

For the molecule “deaminated DQ8d peptide GAPVPYPDPLEPRQYPSGEGSFQPSQENPQA (also: deaminated (sites not given here)) [deaminated gliadin peptide antigen]”, in the assay with Foxp3, the “number of Foxp3 CD4+ T cells” value is given as “did not show a significant increase”. Also, in assay [1], the “DTH response (ear swelling)” value is reported as “slight reduction”.

B1: Ovm: Ovm protein (ovomucoid) used as antigen (protein, UniProt P01005 25-210, looked up)
Ovomucoid: AEVDCSRFPNATDKEGKDVLVCNKDLRPICGTDGVTYTNDCLLCAYSIEFGTNISKEHDGECKETVPMNCSSYANTTSEDGKVMVLCNRAFNPVCGTDGVTYDNECLLCAHKVEQGASVDKRHDGGCRKELAAVSVDCSEYPKPDCTAEDRPLCGSDNKTYGNKCNFCNAVVESNGTLTLSHFGKC
Regarding B1, the AHR result in assay [2] is recorded as “only a moderate effect”.

B2: OVA: intact, LPS-free OVA grade V protein (ovalbumin) used as antigen (protein, UniProt P01012 2-386, looked up)
Ovalbumin: GSIGAASMEFCFDVFKELKVHHANENIFYCPIAIMSALAMVYLGAKDSTRTQINKVVRFDKLPGFGDSIEAQCGTSVNVHSSLRDILNQITKPNDVYSFSLASRLYAEERYPILPEYLQCVKELYRGGLEPINFQTAADQARELINSWVESQTNGIIRNVLQPSSVDSQTAMVLVNAIVFKGLWEKAFKDEDTQAMPFRVTEQESKPVQMMYQIGLFRVASMASEKMKILELPFASGTMSMLVLLPDEVSGLEQLESIINFEKLTEWTSSNVMEERKIKVYLPRMKMEEKYNLTSVLMAMGITDVFSSSANLSGISSAESLKISQAVHAAHAEINEAGREVVGSAEAGVDAASVSEEFRADHPFLFCIKHIATNAVLFFGRCVSP
Turning to B2, the AHR entry in assay [2] and in assay [3] was “only a moderate effect” each time.

The record behind these values is US11918683B2, “Treatment of immune diseases by administration of antigen-specific formulations” (Allero Therapeutics B.V., priority 2017, dated 2024).
